According to US9835616B2, “In vitro method for assessing cytokine storm responses” (IMPERIAL INNOVATIONS LTD., priority 2013, dated 2017):

Assays:
Type in all cases: cell-based, human
[1] = test system: HUVEC; experiment: HUVEC mono-culture, CXCL8 by ELISA; conditions: 10 μg/ml, 24 h, FIG. 3A
Procedure: (§1) FIG. 3A-B HUVEC (A) and mixed donor BOEC (B) plus PBMC mono and co-culture bioassay data. PBMCs were added to HUVEC (A) or BOEC from different donors (B) after 24 h. For monocultures vehicle media was added. At the same time cultures were treated +/− vehicle, ANC28 (TGN1412-like superagonist) (10 μg/ml), Campath (10 μg/ml), Avastin (10 μg/ml) or Arzerra (10 μg/ml) for 24 h. Data are mean±SEM (A; n=3) (B; n=3). Statistical significance between treatments was determined by one-way ANOVA followed by Bonferroni's Multiple Comparison test (*p<0.05)
Plates were incubated at 37° C., 5% CO2.
In order to compare data from our same-donor assay with the current state-of-the-art assays^1,3,17, we ran parallel experiments using HUVECs as the detector endothelial cell model. PBMCs again released low levels of CXCL8 that was not increased by any of the biotherapetuics tested (FIG. 3A). HUVEC released relatively higher basal levels of CXCL8 that were not increased by anti-CD28 superagonist or Campath. […] The basis for these different results cannot be investigated further as HUVEC donors, unlike BOEC, cannot be easily traced and studied further. Similar results were found when PBMCs were added to BOECs from a different donor. Importantly, co-cultures of HUVEC and PBMC (from two donors) responded to TGN1412-like superagonist (ANC28) and Campath. This captures fully what is already know for this assay which, since the TGN1412 phase 1 trial, is as used as the gold standard assay to test biotherapeutics at the preclinical stage^1,17,18. […] This immune activation response in control or other conditions is likely due to the mixing of tissue from different donors and is a serious limitation for the HUVEC or other similar assays, but one that is totally avoided by our ‘same donor’ assay.

[2] = test system: co-cultures of HUVEC and PBMC; experiment: HUVEC plus PBMC co-culture assay (two donors), CXCL8; conditions: HUVEC + PBMC co-culture from two donors, 10 μg/ml, 24 h, FIG. 3A
Procedure: as §1
Supernatants were discarded from each tube.
In order to compare data from our same-donor assay with the current state-of-the-art assays^1,3,17, we ran parallel experiments using HUVECs as the detector endothelial cell model. PBMCs again released low levels of CXCL8 that was not increased by any of the biotherapetuics tested (FIG. 3A). HUVEC released relatively higher basal levels of CXCL8 that were not increased by anti-CD28 superagonist or Campath. […] The basis for these different results cannot be investigated further as HUVEC donors, unlike BOEC, cannot be easily traced and studied further. Similar results were found when PBMCs were added to BOECs from a different donor. Importantly, co-cultures of HUVEC and PBMC (from two donors) responded to TGN1412-like superagonist (ANC28) and Campath. […]

[3] = test system: same donor BOEC: PBMC co-culture; experiment: MSD 9-plex pro-inflammatory cytokine array on matched BOEC:PBMC co-cultures; conditions: 10 μg/ml, 24 h, FIG. 5
Procedure: FIG. 5A-C Cytokine release data from MSD analysis. Measurements were carried out using an MSD 10-spot 9-plex Pro-Inflammatory Assay (see methods). Data are mean±SEM (n=5 from matched 5 donors). Statistical testing was carried out between 5 donors by one-way ANOVA followed by Dunnett's multiple comparison test comparing responses with drug to respective control only (*p<0.05).
Plates were then incubated for 24 h.
To further analyse the cytokines released by matched BOEC and PBMC co-cultures as well as respective monocultures following stimulation with biologics an MSD (Meso Scale Discovery, USA) platform analysis was used. Human pro-inflammatory 9-Plex MULTISPOT 96-well-10 spot MSD plates were purchased from MSD (Gaithersburg, Md.) (Cat no. N05007A-1). Samples were diluted 1:10 in Lonza-EGM2 10% FBS/RPMI mix and added to the MSD plate. The immunoassay was carried out according to manufacturer's instructions. Plates were read using an MSC Sector Imager 2400 and analysed using MSD Discovery® Workbench software. Cytokines analysed were IL-2, CXCL8 (IL-8), IL-12q70, IL-1β, GM-CSF, IFNγ, IL-6, IL-10 and TNFα.

Row | Substance | CXCL8 release [1] | CXCL8 release [2] | GM-CSF release [3] | IL-6 release [3] | IL-8 release [3]
1 | ofatumumab [Arzerra] | tendency to respond |  |  |  | 
2 | bevacizumab [Avastin] | tendency to respond |  |  |  | 
3 | alemtuzumab [Campath] | not increased | responded | tendency to elevate | tendency to elevate | tendency to elevate
